Experiments:
Assay type in all cases: cell-based
[1] = tested on: human corneal endothelial cell; assay: Ki67 immunostaining of human corneal endothelial cells incubated with RSPO1 to 4
Description: A corneal tissue was embedded with OCT compound (catalog No.: 4583; Sakura Finetek, Tokyo, Japan), and frozen in liquid nitrogen to prepare a frozen corneal tissue section. The frozen block was sliced to 8 μm, applied on a silane-coating slide, and air-dried. For preparing the whole tissue section, a Descemet's membrane containing a corneal endothelial cell was peeled from a corneal tissue, allowed to stand in ice-cooled 100% acetone for 30 seconds, applied on a silane-coating slide, and air-dried. As a cultured corneal endothelial cell, a cell cultured on a LabTek 8-well plastic chamber slide was used. Ice-cooled 100% acetone was added to a corneal tissue and the cultured cell, the resultant was allowed to stand at 4° C. for 15 minutes to fix the cell. After shaking and washing with 0.15% TritonX/PBS-, 1% bovine serum albumin (catalog No.: A4503BSA; Sigma-Aldrich, St. Louis, Mo.) was added, and allowed to stand at room temperature for 30 minutes to perform blocking. A primary antibody was diluted with 1% BSA, and incubated at room temperature for 1 hour. As a primary antibody to be used, anti-rabbit GPR49/LGR5 (catalog No.: GTX71143; 1: 200; GeneTex Inc., San Antonio, Tex.), anti-rabbit Nestin (catalog No.: PRB-570C; 1: 200; COVANCE, Berkeley, Calif.), anti-mouse ABCG2 (catalog No.: NC_236; 1: 2; Kamiya biomedical CO., Seattle, Wash. USA), anti-mouse Ki-67 (catalog No.: 556003; 1: 200 BD Pharmingen™ NJ, USA), anti-rabbit Na^+/K^+ ATPase (catalog No.: A132; 1: 100; Zymed), and anti-rabbit ZO1 (Zymed Laboratries Inc., South San Francisco, Calif.) were used. The resultant was washed with 0.15% Triton/PBS- twice, and PBS- once.
A secondary antibody was diluted with a mixed solution of 1% BSA and 0.15% TrironX/PBS-, and incubated at room temperature for 30 minutes. As a secondary antibody to be used, Alexa™ Fluor 488-labeled (conjugated) goat anti-rabbit IgG (catalog No.: A11034; 1: 1500; Molecular Probe-Invitrogen) and Alexa™ Fluor 488-labeled (conjugated) goat anti-mouse IgG (catalog No.: A11029; 1: 1500; Molecular Probe-Invitrogen) were used. The secondary antibody was shaken and washed with 0.15% Triton/PBS- twice, and PBS- once, subjected to nuclear staining with propidium iodide (catalog No.: SP29004-41; PI; Nacalai Tesque, Inc. Kyoto, Japan), and embedded while covered with a cover glass.
In order to investigate a relationship between R-sporadin 1 (RSPO1), R-spondin 2 (RSPO2), R-spondin 3 (RSPO3), or R-spondin 4 (RSPO4) and differentiation of a corneal endothelial cell, the relationship was studied using RSPO1. Reagents used are as follows. • RSPO1 R&D systems catalog No.: 4645-RS • RSPO2 R&D systems catalog No.: 3266-RS • RSPO3 R&D systems catalog No.: 3500-RS • RSPO4 R&D systems catalog No.: 4575-RS
Then, for the purpose of investigating the influence of RSPO on cell proliferation, RSPO1 to 4 were incubated into a human corneal endothelial cell under conditions of 37° C. and 5% CO2 for 1 day. Thereafter, Ki-67 being a cell proliferation marker was immunostained.

[2] = tested on: human corneal endothelial cell in the confluent state; assay: Cell density of confluent human corneal endothelial cells cultured with R-spondin 1; details: R-spondin 1 10 ng/ml, 566.8 at addition
Description: • (Source and culture method): As a human corneal endothelial cell, a corneal endothelial cell was mechanically peeled together with a basal membrane from a cornea for research, purchased from Seattle Eye Bank, and the corneal endothelial cell was peeled and recovered from the basal membrane using collagenase (ROCHE catalog No.: 10 103 586 001), and was subjected to primary culturing. As a medium, for human, Opti-MEM I Reduced-Serum Medium, Liquid (INVITROGEN catalog No.: 31985-070), 8% fetal bovine serum (FES) (BIOWEST, catalog No.: S1820-500), […] CaCl2.2H2O (SIGMA catalog No.: C7902-500G), 0.08% chondroitin sulfate (SIGMA catalog No.: C9819-5G), 20 μg/ml ascorbic acid (SIGMA catalog No.: A4544-25G), 50 μg/ml gentamicin (INVITROGEN catalog No.: 15710-064) and 5 ng/ml EGF (INVITROGEN catalog No.: PHG0311), acclimated for a 3T3 feeder cell, were used.
After subculturing, at the time point where cells reached confluent and were cultured for 2 weeks or longer, and no clear change in the corneal endothelium density was recognized, R-spondin 1 was added into a medium in a concentration of 10 ng/ml, and culture was continued. Observation of cell morphology was performed with a phase contrast microscope, and the cell density was calculated.

[3] = tested on: cultured human corneal endothelial cell; assay: Culture of human corneal endothelial cells with or without RSPO: cell morphology and cell density
Description: GPR49/LGR5 was an orphan receptor of a G protein-coupled receptor superfamily, and a ligand thereof was not known previously. […] In order to determine the function of RSPO on CEC differentiation, the present inventors cultured primate CEC with human recombinant RSPO, or without human recombinant RSPO. […] In order to determine the function of RSPO on CEC proliferation, the present inventors performed immunohistochemical research on Ki67. […] In view of these findings, the present inventors considered that among a RSPO family, particularly, RSPO1 can play an important role in maintenance of CEC.
Finally, in order to further determine influence of RSPO1 on CEC, the present inventors maintained a secondary culture of human CEC in the presence or absence of RSPO1. […] The cell density of a RSPO1-treated cell increased as compared with that of a non-treated cell (FIG. 6B-E). In order to verify which pathway regulated this type of corneal endothelial MT, the present inventors investigated the expression level of a Wnt/β-catenin-associated molecule using Western blotting analysis. […] Further, the protein level of a cell transfected with NT and GPR49/LGR5 and treated with RSPO1 decreased as compared with that of a cell group not treated with RSPO1 (FIG. 6B-F).
A cultured human corneal endothelial cell was cultured for 7 days under conditions of 37° C. and 5% CO2, with being divided into a group of addition of RSPO1 (50 ng/ml) and a group of addition of no RSPO1. […] From the above result, the effect of suppressing differentiation of a corneal endothelial cell was recognized in RSPO1.

B1: R-spondin 1: Recombinant Human R-spondin 1 (R&D Cat. 4645-RS); ligand of GPR49/LGR5 (protein, listed as Homo sapiens)
chain: MRLGLCVVALVLSWTHLTISSRGIKGKRQRRISAEGSQACAKGCELCSEVNGCLKCSPKLFILLERNDIRQVGVCLPSCPPGYFDARNPDMNKCIKCKIEHCEACFSHNFCTKCKEGLYLHKGRCYPACPEGSSAANGTMECSSPAQCEMSEWSPWGPCSKKQQLCGFRRGSEERTRRVLHAPVGDHAACSDTKETRRCTVRRVPCPEGQKRRKGGQGRRENANRNLARKESKEAGAGSRRRKGQQQQQQQGTVGPLTSAGPA
[1]; 50 ng/ml (FIG. 6C-C), as compared with other RSPOs
  level of the Ki67(+) cell ratio: dramatically increased
[1]; R-spondin 1 1000 ng/ml (FIG. 11)
  Ki67 staining: staining is also observed
[1]; RSPO1 50 ng/ml, 500 ng/ml (FIG. 11)
  Ki67-positive cell rate as compared with a control: increased
[1]; incubated 1 day, 37° C., 5% CO2
  proliferation of a human corneal endothelial cell (Ki-67 immunostain): statistically significantly promoted proliferation
[2]; 7th day
  corneal endothelial cell density: about 695 cells/mm^2
[2]; after 14 days
  corneal endothelial cell density: about 875 cells/mm^2
[2]; after 21 days, control without R-spondin 1 535.4
  corneal endothelial cell density: 995.8 cells/mm^2
[3]; 50 ng/ml (FIG. 6C-B)
  cell morphology / in vitro CEC differentiation (phase contrast): compact and uniform hexagonal cell having a smaller size
[3]; RSPO1 50 ng/ml (FIG. 6B-E), without RSPO1 fibroblast-like phenotype
  cell form in secondary culture of human CEC: maintained its hexagonal form
[3]; RSPO1 50 ng/ml, 7 days, non-addition group differentiated into fibroblast-like cells
  morphology of a cell: maintained in a cobblestone manner
[3]; secondary culture of human CEC, RSPO1 50 ng/ml
  cell density as compared with a non-treated cell: increased
